T1: Human CD3eg linker (human)
T1 construct: Single-chain construct; also called recombinant human CD3
T1 chain: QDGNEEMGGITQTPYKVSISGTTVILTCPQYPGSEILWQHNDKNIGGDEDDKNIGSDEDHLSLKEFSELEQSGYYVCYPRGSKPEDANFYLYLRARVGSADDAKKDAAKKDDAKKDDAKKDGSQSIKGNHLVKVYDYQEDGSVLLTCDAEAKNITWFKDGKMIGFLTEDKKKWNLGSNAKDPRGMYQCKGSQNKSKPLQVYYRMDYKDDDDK


Target: T1, Human CD3eg linker
Experiment: SPR; fold vs parent H183/L072

Binder	fold change of affinity
H183/L072 VL S26A (antibody, name in Kabat numbering, V domains shown) VH: QVQLVESGGGLVQPGRSLRLSCAASGFTFSNAWMHWVRQAPGKGLEWVAQIKDKGNAYAAYYAPSVKGRFTISRDDSKNSIYLQMNSLKTEDTAVYYCHYVHYASASTVLPAFGVDAWGQGTTVTVSS VL: DIVMTQSPLSLPVTPGEPASISCQAAQELVHMNRNTYLHWYQQKPGQAPRLLIYKVSNRFPGVPDRFSGSGSGTDFTLKISRVEAEDVGVYYCAQGTSVPFTFGQGTKLEIK	0.8 fold
H183/L072 VL A25D (antibody, name in Kabat numbering, V domains shown) VH: QVQLVESGGGLVQPGRSLRLSCAASGFTFSNAWMHWVRQAPGKGLEWVAQIKDKGNAYAAYYAPSVKGRFTISRDDSKNSIYLQMNSLKTEDTAVYYCHYVHYASASTVLPAFGVDAWGQGTTVTVSS VL: DIVMTQSPLSLPVTPGEPASISCQDSQELVHMNRNTYLHWYQQKPGQAPRLLIYKVSNRFPGVPDRFSGSGSGTDFTLKISRVEAEDVGVYYCAQGTSVPFTFGQGTKLEIK	0 fold
H183/L072 VL A25H (antibody, name in Kabat numbering, V domains shown) VH: QVQLVESGGGLVQPGRSLRLSCAASGFTFSNAWMHWVRQAPGKGLEWVAQIKDKGNAYAAYYAPSVKGRFTISRDDSKNSIYLQMNSLKTEDTAVYYCHYVHYASASTVLPAFGVDAWGQGTTVTVSS VL: DIVMTQSPLSLPVTPGEPASISCQHSQELVHMNRNTYLHWYQQKPGQAPRLLIYKVSNRFPGVPDRFSGSGSGTDFTLKISRVEAEDVGVYYCAQGTSVPFTFGQGTKLEIK	0 fold
H183/L072 VL A25G (antibody, name in Kabat numbering, V domains shown) VH: QVQLVESGGGLVQPGRSLRLSCAASGFTFSNAWMHWVRQAPGKGLEWVAQIKDKGNAYAAYYAPSVKGRFTISRDDSKNSIYLQMNSLKTEDTAVYYCHYVHYASASTVLPAFGVDAWGQGTTVTVSS VL: DIVMTQSPLSLPVTPGEPASISCQGSQELVHMNRNTYLHWYQQKPGQAPRLLIYKVSNRFPGVPDRFSGSGSGTDFTLKISRVEAEDVGVYYCAQGTSVPFTFGQGTKLEIK	0.9 fold
H183/L072 VL A25E (antibody, name in Kabat numbering, V domains shown) VH: QVQLVESGGGLVQPGRSLRLSCAASGFTFSNAWMHWVRQAPGKGLEWVAQIKDKGNAYAAYYAPSVKGRFTISRDDSKNSIYLQMNSLKTEDTAVYYCHYVHYASASTVLPAFGVDAWGQGTTVTVSS VL: DIVMTQSPLSLPVTPGEPASISCQESQELVHMNRNTYLHWYQQKPGQAPRLLIYKVSNRFPGVPDRFSGSGSGTDFTLKISRVEAEDVGVYYCAQGTSVPFTFGQGTKLEIK	0 fold

Target: T2, Human CD137 ECD (human)
T2 construct: entry includes C-terminal His-tag and biotin acceptor peptide; also called human CD137 extracellular domain; 4-1BB
T2 sequence (chain, as listed by the source limits assumed): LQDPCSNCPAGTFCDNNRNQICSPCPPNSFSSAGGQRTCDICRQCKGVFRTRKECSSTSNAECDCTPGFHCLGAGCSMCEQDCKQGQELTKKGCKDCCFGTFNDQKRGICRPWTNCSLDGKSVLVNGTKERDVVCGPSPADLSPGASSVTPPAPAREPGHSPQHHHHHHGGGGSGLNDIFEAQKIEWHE
Experiment: Biacore SPR, vs parent H183/L072

Binder	fold change of affinity
H183/L072 VL Y32Q (antibody, name in Kabat numbering, V domains shown, Dual-Ig) VH: QVQLVESGGGLVQPGRSLRLSCAASGFTFSNAWMHWVRQAPGKGLEWVAQIKDKGNAYAAYYAPSVKGRFTISRDDSKNSIYLQMNSLKTEDTAVYYCHYVHYASASTVLPAFGVDAWGQGTTVTVSS VL: DIVMTQSPLSLPVTPGEPASISCQASQELVHMNRNTQLHWYQQKPGQAPRLLIYKVSNRFPGVPDRFSGSGSGTDFTLKISRVEAEDVGVYYCAQGTSVPFTFGQGTKLEIK	0.2 fold
H183/L072 VL Y32V (antibody, name in Kabat numbering, V domains shown, Dual-Ig) VH: QVQLVESGGGLVQPGRSLRLSCAASGFTFSNAWMHWVRQAPGKGLEWVAQIKDKGNAYAAYYAPSVKGRFTISRDDSKNSIYLQMNSLKTEDTAVYYCHYVHYASASTVLPAFGVDAWGQGTTVTVSS VL: DIVMTQSPLSLPVTPGEPASISCQASQELVHMNRNTVLHWYQQKPGQAPRLLIYKVSNRFPGVPDRFSGSGSGTDFTLKISRVEAEDVGVYYCAQGTSVPFTFGQGTKLEIK	0 fold
H183/L072 VL Y32W (antibody, name in Kabat numbering, V domains shown, Dual-Ig) VH: QVQLVESGGGLVQPGRSLRLSCAASGFTFSNAWMHWVRQAPGKGLEWVAQIKDKGNAYAAYYAPSVKGRFTISRDDSKNSIYLQMNSLKTEDTAVYYCHYVHYASASTVLPAFGVDAWGQGTTVTVSS VL: DIVMTQSPLSLPVTPGEPASISCQASQELVHMNRNTWLHWYQQKPGQAPRLLIYKVSNRFPGVPDRFSGSGSGTDFTLKISRVEAEDVGVYYCAQGTSVPFTFGQGTKLEIK	0.7 fold

Reference: patent publication US20210388087A1 (Chugai, published 2021)
